The source of these data is the supplement of paper PMC10567573.

To fix the notation:
B1: TRIM9 (parent)
chain: PRNSCITCPQCHRSLILDDRGLRG
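Also: lentivirally expressed fusions sorted by FACS into six bins by GFP to DsRed ratio, PSI derived from sequencing read proportions per bin multiplied by bin number.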

Variants of B1 are the subject of the series. Description: protein stability index of a GFP-peptide fusion (GPS, HEK-293T) (PSI 1-6); higher = more stable. The conditions noted are these: c terminus: a fixed tail appended.
On to PRNSCITCPQCHRSLILDDRGLIG [R23I], for which the protein stability index amounted to 2.08.
Under PRNSRITCPQCHRSLILDDRGLRG [C5R] stands 3.09; under PRNSQITCPQCHRSLILDDRGLRG [C5Q], 1.92.
Under PRNSYITCPQCHRSLILDDRGLRG [C5Y] stands 1.87; under PRNSKITCPQCHRSLILDDRGLRG [C5K], 1.71; under PRNSLITCPQCHRSLILDDRGLRG [C5L], 2.29.
Then PRNSCITCPQVHRSLILDDRGLRG [C11V], with 2.2.
With PRNSCITCPQMHRSLILDDRGLRG [C11M], the protein stability index is 1.97.
Then PRNSCITCPQEHRSLILDDRGLRG [C11E], with 2.86; and PRNSCITCPQQHRSLILDDRGLRG [C11Q], with 2.16; and PRNSCITCPQAHRSLILDDRGLRG [C11A], with 2.29.
On to PRNSCITCPQDHRSLILDDRGLRG [C11D], for which the protein stability index was determined as 2.92.
Then PRNSCITCPQTHRSLILDDRGLRG [C11T], with 2.78; and PRNSCITCPQWHRSLILDDRGLRG [C11W], with 3.38; and PRNSCITCPQYHRSLILDDRGLRG [C11Y], with 2.11.
As for PRNSCITCPQCHRSLILDMRGLRG [D19M], the protein stability index amounted to 2.24.
For PRNSCITCPQCHRSLILDIRGLRG [D19I], the protein stability index worked out at 1.75.
As for PRNSCITCPQCHRSLILDRRGLRG [D19R], the protein stability index was 1.84.
Then PRNSCITCPQCHRSLILDFRGLRG [D19F], with 1.72; and PRNSCITCPQCHRSLILDVRGLRG [D19V], with 1.4; and PRNSCITCPQCHRSLILDARGLRG [D19A], with 2.46.
For PRNSCITCPQCHRSLILDERGLRG [D19E], the protein stability index was 1.82.
Then PRNSCITCPQCHRSLILDTRGLRG [D19T], with 2.42; and PRNSCITSPQCHRSLILDDRGLRG [C8S], with 3.15; and PRNSCITGPQCHRSLILDDRGLRG [C8G], with 2.34.
With PRNSCITMPQCHRSLILDDRGLRG [C8M], the protein stability index came out at 2.62.
Under PRNSCITIPQCHRSLILDDRGLRG [C8I] stands 2.38.
With PRNSCITYPQCHRSLILDDRGLRG [C8Y], the protein stability index was 2.54.
Under PRNSCITRPQCHRSLILDDRGLRG [C8R] stands 2.47.
Then PRNSCITDPQCHRSLILDDRGLRG [C8D], with 2.24; and PRNSCITAPQCHRSLILDDRGLRG [C8A], with 2.84; and PRNSCITHPQCHRSLILDDRGLRG [C8H], with 2.29.
As for PRNSCITCPQCHHSLILDDRGLRG [R13H], the protein stability index was 2.59.
On to PRNSCITCPQCHASLILDDRGLRG [R13A], for which the protein stability index is 3.91.
Then PRNSCITCPQCHPSLILDDRGLRG [R13P], with 1.97; and PRNSCITCPQCHWSLILDDRGLRG [R13W], with 2.42.
As for PRNSCITCPQCHKSLILDDRGLRG [R13K], the protein stability index came out at 1.95.
Consider PRNSCITCPQCHGSLILDDRGLRG [R13G], for which the protein stability index came to 2.37.
With PRNSCITCPQCHSSLILDDRGLRG [R13S], the protein stability index came to 2.9.
For PRNSCITCPQCHDSLILDDRGLRG [R13D], the protein stability index is 3.33.
Turning to PRNSCITCPQCHYSLILDDRGLRG [R13Y], the protein stability index is 2.53.
As to PRNSCITCPQCHNSLILDDRGLRG [R13N], the protein stability index is 2.49.
Under PRNSCITCPQCHRSLILDDRGLRP [G24P] stands 2.03; under PRNSCITCPQCHRSLILDDRGLRQ [G24Q], 2.28; under PRNSCITCPQCHRSLILDDRGLRC [G24C], 2.35.
Under PRNSCITCPQCHRSLILDDRGLRH [G24H] stands 3.02; under PRNSCITCPQCHRSLILDDRGLRK [G24K], 1.71.
As to PRNSCITCPQCHRSLILDDRGLRI [G24I], the protein stability index was determined as 2.03.
Under PRNSCITCPQCHRSLILDDRGLRD [G24D] stands 2.08; under PRNSCITCPQCHRSLILADRGLRG [D18A], 2.31; under PRNSCITCPQCHRSLILKDRGLRG [D18K], 2.24.
Then PRNSCITCPQCHRSLILCDRGLRG [D18C], with 2.05; and PRNSCITCPQCHRSLILPDRGLRG [D18P], with 1.49; and PRNSCITCPQCHRSLILFDRGLRG [D18F], with 1.92.
Then PRNSCITCPQCHRSLILYDRGLRG [D18Y], with 2.36; and PRNSCITCPQCHRSLILDDRVLRG [G21V], with 1.78; and PRNSCITCPQCHRSLILDDRNLRG [G21N], with 2.17.
PRNSCITCPQCHRSLILDDRELRG [G21E]: the protein stability index turned out to be 2.93.
Then PRNSCITCPQCHRSLILDDRYLRG [G21Y], with 2.24; and PRNSCITCPQCHRSLILDDRCLRG [G21C], with 2.52; and PRNSCITCPQCHRSLILDDRTLRG [G21T], with 1.57.
Consider PRNSCITCPQCHRSLILDDRQLRG [G21Q], for which the protein stability index was 2.01.
Then PRNSCITCPQCHRSLIHDDRGLRG [L17H], with 2.74; and PRNSCITCPQCHRSLIWDDRGLRG [L17W], with 1.56.
Then PRNSCITCPQCHRSLIADDRGLRG [L17A], with 1.72; and PRNSCITCPQCHRSLIQDDRGLRG [L17Q], with 2.25; and PRNSCITCPQCHRSLITDDRGLRG [L17T], with 2.08.
Regarding PRNSCITCPQCHRSLIEDDRGLRG [L17E], the protein stability index amounted to 2.2.
Under PRNSCITCYQCHRSLILDDRGLRG [P9Y] stands 3.11.
Consider PRNSCITCNQCHRSLILDDRGLRG [P9N], for which the protein stability index is 1.54.
Consider PRNSCITCDQCHRSLILDDRGLRG [P9D], for which the protein stability index turned out to be 2.05.
Then PRNSCITCTQCHRSLILDDRGLRG [P9T], with 1.83; and PRNSCITCHQCHRSLILDDRGLRG [P9H], with 1.51.
As for PRNSCITCSQCHRSLILDDRGLRG [P9S], the protein stability index was determined as 2.16.
Under PRNSCITCPQCHRSLILDDRGSRG [L22S] stands 2.62; under PRNSCITCPQCHRSLILDDRGTRG [L22T], 3.33.
In the case of PRNSCITCPQCHRSLILDDRGPRG [L22P], the protein stability index was 3.51.
With PRNSCITCPQCHRSLILDDRGQRG [L22Q], the protein stability index was 3.69.
Under PRNSCITCPQCHRSLILDDRGDRG [L22D] stands 3.81; under PRNSCITCPQCHRSLILDDRGRRG [L22R], 2.84.
Under PRNSCITCPQCHRSLILDDRGIRG [L22I] stands 2.36; under PRNSCITCPQCHRSLILDDRGWRG [L22W], 2.54.
Turning to PRNSCITCPQCHRSLILDDRGYRG [L22Y], the protein stability index came to 2.54.
As for PRNSCITCPQCHRSLILDDRGCRG [L22C], the protein stability index was found to be 2.32.
Then PRNSCITCPQCHRSLILDDRGERG [L22E], with 2.21; and PRNSCITCPQCHRSLILDDWGLRG [R20W], with 1.44; and PRNSCITCPQCHRSLILDDNGLRG [R20N], with 2.05.
In the case of PRNSCITCPQCHRSLILDDTGLRG [R20T], the protein stability index is 3.07.
Regarding PRNSCITCPQCHRSLILDDIGLRG [R20I], the protein stability index turned out to be 1.85.
Consider PRNSCITCPQCHRSLILDDVGLRG [R20V], for which the protein stability index turned out to be 1.82.
Under PRNSCITCPQCHRSLILDDEGLRG [R20E] stands 2.7; under PRNSCITCPQCHRSLILDDFGLRG [R20F], 1.69.
Under PRNSCITCPQCHRSLILDDCGLRG [R20C] stands 2.39.
For the variant PRNSCITCPQCHRSLILDDKGLRG [R20K], the protein stability index came to 1.98.
